Assay results taken from paper PMC9943657, “Structural basis for topological regulation of Tn3 resolvase” (Nucleic Acids Research, 2021).

Target: the molecule itself
Experiment: crystal structure; Form I crystals, P4(3)2(1)2, 3.4 Å; Tn3 resolvase mixed with site III DNA duplex in a 2:1.25 molar ratio; one dimer-site III DNA complex in the asymmetric unit; step: two subunits in the DNA-bound dimer

B1: Tn3 resolvase (wild-type, with SHHHHHH added after the natural C-terminus) (enzyme, transposon Tn3, UniProt P0ADI2 1-185, looked up)
chain: MRIFGYARVSTSQQSLDIQIRALKDAGVKANRIFTDKASGSSTDREGLDLLRMKVEEGDVILVKKLDRLGRDTADMIQLIKEFDAQGVAVRFIDDGISTDGDMGQMVVTILSAVAQAERRRILERTNEGRQEAKLKGIKFGRRRTVDRNVVLTLHQKGTGATEIAHQLSIARSTVYKILEDERAS
notes: Tn3 resolvase, wild type, encoded by the Tn3 transposon; GenBank CAA23885.1; The 7 C-terminal residues (SHHHHHH) were disordered in the crystal structure; also called WT Tn3 resolvase; source: E. coli Rosetta DE3 pLysS from plasmid pSA1121; not shown: SHHHHHH (Ser-His6), C-terminal, kept
B1: binds.
